According to the supplement of paper PMC9112550, “Optimization of the antimicrobial peptide Bac7 by deep mutational scanning” (BMC Biology, 2022):

Tested on: Escherichia coli TOP10
Assay: shrunken log2 fold change of peptide-encoding DNA abundance (4.5 h post-induction vs induction); higher = less antimicrobial activity (less host growth inhibition)
Settings: time post-induction: 4.5 h; library: site-saturation at positions 5, 18, 19, 20
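Also: peptides expressed intracellularly from a pBAD plasmid library in pooled LB shake-flask culture, induced with 0.3% L-arabinose, DNA abundance read by NGS, three biological replicates, DESeq2 with apeglm shrinkage.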

Row | Sequence | shrunken log2 fold change
1 | RRIRGRPPRLPRPRPRPFEPPRP | 0.267
2 | RRIRTRPPRLPRPRPRPCYVPRP | -0.89
3 | RRIRIRPPRLPRPRPRPETYPRP | -0.263
4 | RRIRTRPPRLPRPRPRPKWIPRP | -0.232
5 | RRIRGRPPRLPRPRPRPEDAPRP | 1.65
6 | RRIRERPPRLPRPRPRPRSWPRP | 0.0987
7 | RRIRTRPPRLPRPRPRPVHYPRP | 0.0226
8 | RRIRLRPPRLPRPRPRPKYMPRP | -0.544
9 | RRIRCRPPRLPRPRPRPRDLPRP | 0.108
10 | RRIRDRPPRLPRPRPRPTRKPRP | 0.385
11 | RRIRRRPPRLPRPRPRPVMYPRP | -0.127
12 | RRIRLRPPRLPRPRPRPTTPPRP | 0.138
13 | RRIRDRPPRLPRPRPRPMMHPRP | 0.937
14 | RRIRVRPPRLPRPRPRPCMAPRP | -0.276
15 | RRIRRRPPRLPRPRPRPTEHPRP | 0.0963
16 | RRIRDRPPRLPRPRPRPFRYPRP | 0.0402
17 | RRIRCRPPRLPRPRPRPVWSPRP | -0.119
18 | RRIRTRPPRLPRPRPRPDGYPRP | -0.0637
19 | RRIRSRPPRLPRPRPRPYGYPRP | -0.00281
20 | RRIRSRPPRLPRPRPRPAAIPRP | 2.36
21 | RRIRQRPPRLPRPRPRPANWPRP | 0.431
22 | RRIRQRPPRLPRPRPRPISSPRP | 0.00776
23 | RRIRHRPPRLPRPRPRPPGKPRP | -0.155
24 | RRIRCRPPRLPRPRPRPIDVPRP | -0.856
25 | RRIRCRPPRLPRPRPRPNNWPRP | -0.362

Row | Sequence | shrunken log2 fold change
26 | RRIRIRPPRLPRPRPRPHVYPRP | -0.112
27 | RRIRVRPPRLPRPRPRPTVMPRP | 0.126
28 | RRIRGRPPRLPRPRPRPDIWPRP | 0.598
29 | RRIRPRPPRLPRPRPRPWHHPRP | -0.209
30 | RRIRSRPPRLPRPRPRPPTKPRP | 0.0856
31 | RRIRNRPPRLPRPRPRPYATPRP | -0.145
32 | RRIRIRPPRLPRPRPRPFARPRP | -0.0891
33 | RRIRWRPPRLPRPRPRPLKQPRP | 0.206
34 | RRIRCRPPRLPRPRPRPSDMPRP | -0.415
35 | RRIRCRPPRLPRPRPRPLERPRP | -0.199
36 | RRIRYRPPRLPRPRPRPFALPRP | -0.133
37 | RRIRCRPPRLPRPRPRPGTNPRP | -0.15
38 | RRIRIRPPRLPRPRPRPDERPRP | -0.0172
39 | RRIRQRPPRLPRPRPRPCWRPRP | -0.0087
40 | RRIRWRPPRLPRPRPRPVILPRP | -0.208
41 | RRIRPRPPRLPRPRPRPLWTPRP | 0.0798
42 | RRIRSRPPRLPRPRPRPTLKPRP | -0.139
43 | RRIRDRPPRLPRPRPRPECYPRP | -0.00335
44 | RRIRWRPPRLPRPRPRPPALPRP | 0.433
45 | RRIRLRPPRLPRPRPRPADAPRP | 0.599
46 | RRIRNRPPRLPRPRPRPRRKPRP | 0.0625
47 | RRIRYRPPRLPRPRPRPFWNPRP | -0.178
48 | RRIRDRPPRLPRPRPRPPQNPRP | 0.409
49 | RRIRERPPRLPRPRPRPPKCPRP | 0.0212
50 | RRIRHRPPRLPRPRPRPKQLPRP | -0.553

Row | Sequence | shrunken log2 fold change
51 | RRIRRRPPRLPRPRPRPHWYPRP | -0.404
52 | RRIRVRPPRLPRPRPRPSPAPRP | 0.34
53 | RRIRARPPRLPRPRPRPESTPRP | 1.05
54 | RRIRYRPPRLPRPRPRPTETPRP | -0.00564
55 | RRIRYRPPRLPRPRPRPSIHPRP | -0.722
56 | RRIRYRPPRLPRPRPRPAMEPRP | 0.0738
57 | RRIRIRPPRLPRPRPRPEGTPRP | 0.0536
58 | RRIRFRPPRLPRPRPRPGGTPRP | -0.0188
59 | RRIRDRPPRLPRPRPRPNFSPRP | -0.0622
60 | RRIRCRPPRLPRPRPRPKCAPRP | 0.121
61 | RRIRIRPPRLPRPRPRPLPPPRP | 0.127
62 | RRIRLRPPRLPRPRPRPAMAPRP | 0.00127
63 | RRIRYRPPRLPRPRPRPDPCPRP | -0.0185
64 | RRIRIRPPRLPRPRPRPIRTPRP | -0.288
65 | RRIRDRPPRLPRPRPRPFREPRP | -0.376
66 | RRIRRRPPRLPRPRPRPHRKPRP | -0.247
67 | RRIRIRPPRLPRPRPRPKKFPRP | -0.666
68 | RRIRRRPPRLPRPRPRPQMPPRP | 0.283
69 | RRIRVRPPRLPRPRPRPVFGPRP | -0.0383
70 | RRIRSRPPRLPRPRPRPHCSPRP | -0.686
71 | RRIRERPPRLPRPRPRPTPKPRP | 0.525
72 | RRIRERPPRLPRPRPRPIAPPRP | 0.235
73 | RRIRNRPPRLPRPRPRPIEGPRP | -0.0908
74 | RRIRRRPPRLPRPRPRPFRRPRP | 0.322
75 | RRIRCRPPRLPRPRPRPAVDPRP | 0.449

Row | Sequence | shrunken log2 fold change
76 | RRIRNRPPRLPRPRPRPHYYPRP | -0.356
77 | RRIRTRPPRLPRPRPRPHMVPRP | 0.00159
78 | RRIRWRPPRLPRPRPRPFQIPRP | -0.25
79 | RRIRGRPPRLPRPRPRPETDPRP | 1.34
80 | RRIRARPPRLPRPRPRPQQAPRP | 0.308
81 | RRIRFRPPRLPRPRPRPSVCPRP | -0.16
82 | RRIRLRPPRLPRPRPRPTMIPRP | -0.164
83 | RRIRGRPPRLPRPRPRPYLFPRP | -0.0066
84 | RRIRRRPPRLPRPRPRPYICPRP | -0.452
85 | RRIRRRPPRLPRPRPRPTAIPRP | 0.211
86 | RRIRHRPPRLPRPRPRPHIPPRP | -0.514
87 | RRIRTRPPRLPRPRPRPDHIPRP | -0.242
88 | RRIRGRPPRLPRPRPRPVHVPRP | 0.0798
89 | RRIRIRPPRLPRPRPRPPIQPRP | -0.468
90 | RRIRCRPPRLPRPRPRPEPSPRP | 0.146
91 | RRIRCRPPRLPRPRPRPVNTPRP | -0.259
92 | RRIRHRPPRLPRPRPRPCMYPRP | -0.0819
93 | RRIRPRPPRLPRPRPRPTTGPRP | 0.12
94 | RRIRDRPPRLPRPRPRPKACPRP | 0.024
95 | RRIRLRPPRLPRPRPRPQNIPRP | -0.512
96 | RRIRQRPPRLPRPRPRPIDHPRP | -0.0445
97 | RRIRVRPPRLPRPRPRPVIIPRP | -0.182
98 | RRIRDRPPRLPRPRPRPLIEPRP | 0.573
99 | RRIRYRPPRLPRPRPRPDTWPRP | -0.0135
100 | RRIRGRPPRLPRPRPRPEVDPRP | 1.84

Row | Sequence | shrunken log2 fold change
101 | RRIRYRPPRLPRPRPRPTYRPRP | -0.27
102 | RRIRPRPPRLPRPRPRPIWVPRP | 0.0645
103 | RRIRMRPPRLPRPRPRPLGGPRP | 0.548
104 | RRIRIRPPRLPRPRPRPKYFPRP | -0.288
105 | RRIRCRPPRLPRPRPRPLHHPRP | -0.469
106 | RRIRFRPPRLPRPRPRPTKRPRP | 0.269
107 | RRIRDRPPRLPRPRPRPHWTPRP | -0.179
108 | RRIRQRPPRLPRPRPRPPKWPRP | 0.136
109 | RRIRMRPPRLPRPRPRPFMGPRP | -0.0409
110 | RRIRMRPPRLPRPRPRPNATPRP | 2.16
111 | RRIRWRPPRLPRPRPRPTMGPRP | 0.272
112 | RRIRWRPPRLPRPRPRPVERPRP | 0.398
113 | RRIRTRPPRLPRPRPRPTIFPRP | -0.2
114 | RRIRRRPPRLPRPRPRPQFHPRP | -0.133
115 | RRIRNRPPRLPRPRPRPRTNPRP | -0.166
116 | RRIRHRPPRLPRPRPRPLKMPRP | -0.182
117 | RRIRKRPPRLPRPRPRPKGMPRP | -0.00227
118 | RRIRMRPPRLPRPRPRPMFQPRP | -0.228
119 | RRIRHRPPRLPRPRPRPDLTPRP | -0.000777
120 | RRIRQRPPRLPRPRPRPMMSPRP | -0.0325
121 | RRIRDRPPRLPRPRPRPNRWPRP | 0.0049
122 | RRIRPRPPRLPRPRPRPVELPRP | -0.0271
123 | RRIRNRPPRLPRPRPRPELDPRP | 0.0611
124 | RRIRTRPPRLPRPRPRPSSYPRP | -0.0381
125 | RRIRIRPPRLPRPRPRPYWEPRP | -0.152
